The record followed here is patent US20240270846A1 (published 2024).

The labels stand for the following.
B1: CE115HA000 H35Q one-arm antibody (antibody, human IgG1, kappa, L234A L235A, N297A, name in Kabat numbering)
heavy: QVQLVESGGGVVQPGRSLRLSCAASGFTFSNAWMQWVRQAPGKGLEWVAQIKAKSNNYATYYAESVKGRFTISRDDSKNSLYLQMNSLKTEDTAVYYCRYVHYGAYYGVDAWGQGTTVTVSSASTKGPSVFPLAPSSKSTSGGTAALGCLVKDYFPEPVTVSWNSGALTSGVHTFPAVLQSSGLYSLSSVVTVPSSSLGTQTYICNVNHKPSNTKVDKKVEPKSCDKTHTCPPCPAPEAAGGPSVFLFPPKPKDTLMISRTPEVTCVVVDVSHEDPEVKFNWYVDGVEVHNAKTKPREEQYASTYRVVSVLTVLHQDWLNGKEYKCKVSNKALPAPIEKTISKAKGQPREPQVYTLPPSRCELTKNQVSLSCAVKGFYPSDIAVEWESNGQPENNYKTTPPVLDSDGSFFLVSKLTVDKSRWQQGNVFSCSVMHEALHNHYTQKSLSLSPDYKDDDDK
chain: EPKSSDKTHTCPPCPAPELLGGPSVFLFPPKPKDTLMISRTPEVTCVVVDVSHEDPEVKFNWYVDGVEVHNAKTKPREEQYNSTYRVVSVLTVLHQDWLNGKEYKCKVSNKALPAPIEKTISKAKGQPREPQVCTLPPSRDELTKNQVSLWCLVKGFYPSDIAVEWESNGQPENNYKTTPPVLDSDGSFFLYSKLTVDKSRWQQGNVFSCSVMHEALHNRYTQKSLSLSP
light: DIVMTQSPLSLPVTPGEPASISCRSSQSLVHSNRNTYLHWYQQKPGQAPRLLIYKVSNRFSGVPDRFSGSGSGTDFTLKISRVEAEDVGVYYCGQGTQVPYTFGQGTKLEIKRTVAAPSVFIFPPSDEQLKSGTASVVCLLNNFYPREAKVQWKVDNALQSGNSQESVTEQDSKDSTYSLSSTLTLSKADYEKHKVYACEVTHQGLSSPVTKSFNRGEC
notes: one-arm antibody
B2: CE115HA000 H35S one-arm antibody (antibody, human IgG1, kappa, L234A L235A, N297A, name in Kabat numbering)
heavy: QVQLVESGGGVVQPGRSLRLSCAASGFTFSNAWMSWVRQAPGKGLEWVAQIKAKSNNYATYYAESVKGRFTISRDDSKNSLYLQMNSLKTEDTAVYYCRYVHYGAYYGVDAWGQGTTVTVSSASTKGPSVFPLAPSSKSTSGGTAALGCLVKDYFPEPVTVSWNSGALTSGVHTFPAVLQSSGLYSLSSVVTVPSSSLGTQTYICNVNHKPSNTKVDKKVEPKSCDKTHTCPPCPAPEAAGGPSVFLFPPKPKDTLMISRTPEVTCVVVDVSHEDPEVKFNWYVDGVEVHNAKTKPREEQYASTYRVVSVLTVLHQDWLNGKEYKCKVSNKALPAPIEKTISKAKGQPREPQVYTLPPSRCELTKNQVSLSCAVKGFYPSDIAVEWESNGQPENNYKTTPPVLDSDGSFFLVSKLTVDKSRWQQGNVFSCSVMHEALHNHYTQKSLSLSPDYKDDDDK
chain: EPKSSDKTHTCPPCPAPELLGGPSVFLFPPKPKDTLMISRTPEVTCVVVDVSHEDPEVKFNWYVDGVEVHNAKTKPREEQYNSTYRVVSVLTVLHQDWLNGKEYKCKVSNKALPAPIEKTISKAKGQPREPQVCTLPPSRDELTKNQVSLWCLVKGFYPSDIAVEWESNGQPENNYKTTPPVLDSDGSFFLYSKLTVDKSRWQQGNVFSCSVMHEALHNRYTQKSLSLSP
light: DIVMTQSPLSLPVTPGEPASISCRSSQSLVHSNRNTYLHWYQQKPGQAPRLLIYKVSNRFSGVPDRFSGSGSGTDFTLKISRVEAEDVGVYYCGQGTQVPYTFGQGTKLEIKRTVAAPSVFIFPPSDEQLKSGTASVVCLLNNFYPREAKVQWKVDNALQSGNSQESVTEQDSKDSTYSLSSTLTLSKADYEKHKVYACEVTHQGLSSPVTKSFNRGEC
notes: one-arm antibody
B3: CE115HA000 H35T one-arm antibody (antibody, human IgG1, kappa, L234A L235A, N297A, name in Kabat numbering)
heavy: QVQLVESGGGVVQPGRSLRLSCAASGFTFSNAWMTWVRQAPGKGLEWVAQIKAKSNNYATYYAESVKGRFTISRDDSKNSLYLQMNSLKTEDTAVYYCRYVHYGAYYGVDAWGQGTTVTVSSASTKGPSVFPLAPSSKSTSGGTAALGCLVKDYFPEPVTVSWNSGALTSGVHTFPAVLQSSGLYSLSSVVTVPSSSLGTQTYICNVNHKPSNTKVDKKVEPKSCDKTHTCPPCPAPEAAGGPSVFLFPPKPKDTLMISRTPEVTCVVVDVSHEDPEVKFNWYVDGVEVHNAKTKPREEQYASTYRVVSVLTVLHQDWLNGKEYKCKVSNKALPAPIEKTISKAKGQPREPQVYTLPPSRCELTKNQVSLSCAVKGFYPSDIAVEWESNGQPENNYKTTPPVLDSDGSFFLVSKLTVDKSRWQQGNVFSCSVMHEALHNHYTQKSLSLSPDYKDDDDK
chain: EPKSSDKTHTCPPCPAPELLGGPSVFLFPPKPKDTLMISRTPEVTCVVVDVSHEDPEVKFNWYVDGVEVHNAKTKPREEQYNSTYRVVSVLTVLHQDWLNGKEYKCKVSNKALPAPIEKTISKAKGQPREPQVCTLPPSRDELTKNQVSLWCLVKGFYPSDIAVEWESNGQPENNYKTTPPVLDSDGSFFLYSKLTVDKSRWQQGNVFSCSVMHEALHNRYTQKSLSLSP
light: DIVMTQSPLSLPVTPGEPASISCRSSQSLVHSNRNTYLHWYQQKPGQAPRLLIYKVSNRFSGVPDRFSGSGSGTDFTLKISRVEAEDVGVYYCGQGTQVPYTFGQGTKLEIKRTVAAPSVFIFPPSDEQLKSGTASVVCLLNNFYPREAKVQWKVDNALQSGNSQESVTEQDSKDSTYSLSSTLTLSKADYEKHKVYACEVTHQGLSSPVTKSFNRGEC
notes: one-arm antibody
B4: CE115HA000 H35R one-arm antibody (antibody, human IgG1, kappa, L234A L235A, N297A, name in Kabat numbering)
heavy: QVQLVESGGGVVQPGRSLRLSCAASGFTFSNAWMRWVRQAPGKGLEWVAQIKAKSNNYATYYAESVKGRFTISRDDSKNSLYLQMNSLKTEDTAVYYCRYVHYGAYYGVDAWGQGTTVTVSSASTKGPSVFPLAPSSKSTSGGTAALGCLVKDYFPEPVTVSWNSGALTSGVHTFPAVLQSSGLYSLSSVVTVPSSSLGTQTYICNVNHKPSNTKVDKKVEPKSCDKTHTCPPCPAPEAAGGPSVFLFPPKPKDTLMISRTPEVTCVVVDVSHEDPEVKFNWYVDGVEVHNAKTKPREEQYASTYRVVSVLTVLHQDWLNGKEYKCKVSNKALPAPIEKTISKAKGQPREPQVYTLPPSRCELTKNQVSLSCAVKGFYPSDIAVEWESNGQPENNYKTTPPVLDSDGSFFLVSKLTVDKSRWQQGNVFSCSVMHEALHNHYTQKSLSLSPDYKDDDDK
chain: EPKSSDKTHTCPPCPAPELLGGPSVFLFPPKPKDTLMISRTPEVTCVVVDVSHEDPEVKFNWYVDGVEVHNAKTKPREEQYNSTYRVVSVLTVLHQDWLNGKEYKCKVSNKALPAPIEKTISKAKGQPREPQVCTLPPSRDELTKNQVSLWCLVKGFYPSDIAVEWESNGQPENNYKTTPPVLDSDGSFFLYSKLTVDKSRWQQGNVFSCSVMHEALHNRYTQKSLSLSP
light: DIVMTQSPLSLPVTPGEPASISCRSSQSLVHSNRNTYLHWYQQKPGQAPRLLIYKVSNRFSGVPDRFSGSGSGTDFTLKISRVEAEDVGVYYCGQGTQVPYTFGQGTKLEIKRTVAAPSVFIFPPSDEQLKSGTASVVCLLNNFYPREAKVQWKVDNALQSGNSQESVTEQDSKDSTYSLSSTLTLSKADYEKHKVYACEVTHQGLSSPVTKSFNRGEC
notes: one-arm antibody
B5: CE115HA000 H35W one-arm antibody (antibody, human IgG1, kappa, L234A L235A, N297A, name in Kabat numbering)
heavy: QVQLVESGGGVVQPGRSLRLSCAASGFTFSNAWMWWVRQAPGKGLEWVAQIKAKSNNYATYYAESVKGRFTISRDDSKNSLYLQMNSLKTEDTAVYYCRYVHYGAYYGVDAWGQGTTVTVSSASTKGPSVFPLAPSSKSTSGGTAALGCLVKDYFPEPVTVSWNSGALTSGVHTFPAVLQSSGLYSLSSVVTVPSSSLGTQTYICNVNHKPSNTKVDKKVEPKSCDKTHTCPPCPAPEAAGGPSVFLFPPKPKDTLMISRTPEVTCVVVDVSHEDPEVKFNWYVDGVEVHNAKTKPREEQYASTYRVVSVLTVLHQDWLNGKEYKCKVSNKALPAPIEKTISKAKGQPREPQVYTLPPSRCELTKNQVSLSCAVKGFYPSDIAVEWESNGQPENNYKTTPPVLDSDGSFFLVSKLTVDKSRWQQGNVFSCSVMHEALHNHYTQKSLSLSPDYKDDDDK
chain: EPKSSDKTHTCPPCPAPELLGGPSVFLFPPKPKDTLMISRTPEVTCVVVDVSHEDPEVKFNWYVDGVEVHNAKTKPREEQYNSTYRVVSVLTVLHQDWLNGKEYKCKVSNKALPAPIEKTISKAKGQPREPQVCTLPPSRDELTKNQVSLWCLVKGFYPSDIAVEWESNGQPENNYKTTPPVLDSDGSFFLYSKLTVDKSRWQQGNVFSCSVMHEALHNRYTQKSLSLSP
light: DIVMTQSPLSLPVTPGEPASISCRSSQSLVHSNRNTYLHWYQQKPGQAPRLLIYKVSNRFSGVPDRFSGSGSGTDFTLKISRVEAEDVGVYYCGQGTQVPYTFGQGTKLEIKRTVAAPSVFIFPPSDEQLKSGTASVVCLLNNFYPREAKVQWKVDNALQSGNSQESVTEQDSKDSTYSLSSTLTLSKADYEKHKVYACEVTHQGLSSPVTKSFNRGEC
notes: one-arm antibody
B6: CE115HA000 H35V one-arm antibody (antibody, human IgG1, kappa, L234A L235A, N297A, name in Kabat numbering)
heavy: QVQLVESGGGVVQPGRSLRLSCAASGFTFSNAWMVWVRQAPGKGLEWVAQIKAKSNNYATYYAESVKGRFTISRDDSKNSLYLQMNSLKTEDTAVYYCRYVHYGAYYGVDAWGQGTTVTVSSASTKGPSVFPLAPSSKSTSGGTAALGCLVKDYFPEPVTVSWNSGALTSGVHTFPAVLQSSGLYSLSSVVTVPSSSLGTQTYICNVNHKPSNTKVDKKVEPKSCDKTHTCPPCPAPEAAGGPSVFLFPPKPKDTLMISRTPEVTCVVVDVSHEDPEVKFNWYVDGVEVHNAKTKPREEQYASTYRVVSVLTVLHQDWLNGKEYKCKVSNKALPAPIEKTISKAKGQPREPQVYTLPPSRCELTKNQVSLSCAVKGFYPSDIAVEWESNGQPENNYKTTPPVLDSDGSFFLVSKLTVDKSRWQQGNVFSCSVMHEALHNHYTQKSLSLSPDYKDDDDK
chain: EPKSSDKTHTCPPCPAPELLGGPSVFLFPPKPKDTLMISRTPEVTCVVVDVSHEDPEVKFNWYVDGVEVHNAKTKPREEQYNSTYRVVSVLTVLHQDWLNGKEYKCKVSNKALPAPIEKTISKAKGQPREPQVCTLPPSRDELTKNQVSLWCLVKGFYPSDIAVEWESNGQPENNYKTTPPVLDSDGSFFLYSKLTVDKSRWQQGNVFSCSVMHEALHNRYTQKSLSLSP
light: DIVMTQSPLSLPVTPGEPASISCRSSQSLVHSNRNTYLHWYQQKPGQAPRLLIYKVSNRFSGVPDRFSGSGSGTDFTLKISRVEAEDVGVYYCGQGTQVPYTFGQGTKLEIKRTVAAPSVFIFPPSDEQLKSGTASVVCLLNNFYPREAKVQWKVDNALQSGNSQESVTEQDSKDSTYSLSSTLTLSKADYEKHKVYACEVTHQGLSSPVTKSFNRGEC
notes: one-arm antibody

For this test, the target named is T1, CD3 epsilon homodimer protein (UniProt P07766 23-126).
T1 construct: also called CD3 (CD3 epsilon)
T1 sequence (P07766 23-126): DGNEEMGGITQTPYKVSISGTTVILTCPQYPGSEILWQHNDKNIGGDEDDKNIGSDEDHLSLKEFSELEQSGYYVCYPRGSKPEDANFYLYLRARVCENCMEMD
Nature of the test: SPR Biacore T200, antibody over immobilised CD3e homodimer.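 Also: CD3 epsilon homodimer amine-coupled on a CM4 chip, run at 25 °C in HBS-EP+, Z = bound amount of each single-residue H chain variant over that of the parent antibody.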
B1: the “ratio of amounts bound (Z=Y/X vs CE115HA000)” value (shortened to “ratio of amounts bound”) turned out to be 0.13. For B2, the “ratio of amounts bound” value was 0.23. Take B3: the “ratio of amounts bound” value is 0.26. For B4 the value was 0.14; for B5, 0.22; for B6, 0.22.
